Experimental data reported in US20230032737A1 (University of Pennsylvania, published 2023).

Target: T1, purified human factor D (from human plasma) (human, UniProt P00746 26-253)
T1 construct: mature; Also used here for the native factor D of normal human serum in the functional assays; also called human fD; fD
Test: SPR (Biacore-2000), purified human factor D amine-coupled to CM4 chip
Procedure: FIG. 8 depicts the results of antigen binding affinity measurements for 1F10-5 mAb using Biacore. Purified human factor D was coupled onto CM4 chip using the amine coupling method. Biacore analysis was performed on a Biacore-2000 instrument. The chip was regenerated between each binding using 50 mM NaOH.

T1 sequence (P00746 26-253): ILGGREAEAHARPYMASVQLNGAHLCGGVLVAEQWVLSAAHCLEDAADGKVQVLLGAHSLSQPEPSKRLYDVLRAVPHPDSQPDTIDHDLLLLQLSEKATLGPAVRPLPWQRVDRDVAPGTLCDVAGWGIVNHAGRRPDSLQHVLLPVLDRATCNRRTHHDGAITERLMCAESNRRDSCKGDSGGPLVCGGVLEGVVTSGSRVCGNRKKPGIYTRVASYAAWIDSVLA

Kd: 0.15 nM
B1: mAb 1F10-5 (murine anti-human factor D monoclonal antibody) (antibody, V domains shown)
VH: QIQLVQSGPELKKPGETVKISCKASGYTFTNFEMNWVKQAPGQGLNWMGCINTYTGDPIYADDFRGRFAFSLETSASTAYLQINNLKNEDMATYFCSREGGGDYWGQGTTLTVSS
VL: SIVMTQTPKFLLVSAGDRVTITCKASQSVTNDVAWYQQKPGQSPRLLIYHASNRYTGVPERFTGSGYGTDFTFTINTVQAEDLAVYFCQQDYSSPRTFGGGTKLEIKR
notes: Mouse hybridoma antibody; also called 1F10-mAb; IF10-5
